Data: IntAct's records for PubMed 10913138

B1: Protein S100-B (Homo sapiens), P04271 (parent)
chain: MSELEKAMVALIDVFHQYSGREGDKHKLKKSELKELINNELSHFLEEIKEQEVVDKVMETLDNDGDGECDFQEFMAFVAMVTTACHEFFEHE
partner: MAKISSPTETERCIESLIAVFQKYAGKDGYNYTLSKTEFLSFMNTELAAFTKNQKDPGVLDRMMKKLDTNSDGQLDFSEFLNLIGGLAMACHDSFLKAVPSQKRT
B2: Protein S100-B (Homo sapiens), P04271 (parent)
chain: B1 chain

Variants of: B1
Details: with S100A11, P31949

Variant	effect of a mutation on the interaction
MSELEKAMVALIDVFHQYSGREGDKHKLKKSELKELINNELSHFLEEIKEQEVVDKVMETLDNDGDGECDFQEFMAFVAMVTTACHEFAEHE [F89A]	decreasing interaction

Variants of: B2
Details: with S100A6, P06703

Variant	effect of a mutation on the interaction
MSELEKAMVALIDVFHQYSGREGDKHKLKKSELKELINNELSHFLEEIKEQEVVDKVMETLDNDGDGECDFQEFMAFVAMVTTACHEFAEHE [F89A]	decreasing interaction

Variants of: B2
Details: with S100A6, P06703
Remark: another data set of the same source

Variant	effect of a mutation on the interaction
MSELEKAMVALIDVFHQYSGREGDKHKLKKSELKELINNELSHFLEEIKEQEVVDKVMETLDNDGDGECDFQEFMAFVAMVTTACHEAFEHE [F88A]	decreasing interaction
